Laboratory results from patent US20220289795, “EFFICIENT METHOD FOR PREPARING PPR PROTEIN AND USE OF THE SAME” (EditForce, Inc., published 2022).
Positions count from the first letter of the chain named.

Experiments:
Experiment in all cases: ELONA; RPB-ELISA
NL_v2_PPR21 = target: T1, NL_v2_PPR21 (Artificial Sequence); conditions: tags: N-term luciferase, C-term 6xHis; label: 5'-biotin
T1 chain: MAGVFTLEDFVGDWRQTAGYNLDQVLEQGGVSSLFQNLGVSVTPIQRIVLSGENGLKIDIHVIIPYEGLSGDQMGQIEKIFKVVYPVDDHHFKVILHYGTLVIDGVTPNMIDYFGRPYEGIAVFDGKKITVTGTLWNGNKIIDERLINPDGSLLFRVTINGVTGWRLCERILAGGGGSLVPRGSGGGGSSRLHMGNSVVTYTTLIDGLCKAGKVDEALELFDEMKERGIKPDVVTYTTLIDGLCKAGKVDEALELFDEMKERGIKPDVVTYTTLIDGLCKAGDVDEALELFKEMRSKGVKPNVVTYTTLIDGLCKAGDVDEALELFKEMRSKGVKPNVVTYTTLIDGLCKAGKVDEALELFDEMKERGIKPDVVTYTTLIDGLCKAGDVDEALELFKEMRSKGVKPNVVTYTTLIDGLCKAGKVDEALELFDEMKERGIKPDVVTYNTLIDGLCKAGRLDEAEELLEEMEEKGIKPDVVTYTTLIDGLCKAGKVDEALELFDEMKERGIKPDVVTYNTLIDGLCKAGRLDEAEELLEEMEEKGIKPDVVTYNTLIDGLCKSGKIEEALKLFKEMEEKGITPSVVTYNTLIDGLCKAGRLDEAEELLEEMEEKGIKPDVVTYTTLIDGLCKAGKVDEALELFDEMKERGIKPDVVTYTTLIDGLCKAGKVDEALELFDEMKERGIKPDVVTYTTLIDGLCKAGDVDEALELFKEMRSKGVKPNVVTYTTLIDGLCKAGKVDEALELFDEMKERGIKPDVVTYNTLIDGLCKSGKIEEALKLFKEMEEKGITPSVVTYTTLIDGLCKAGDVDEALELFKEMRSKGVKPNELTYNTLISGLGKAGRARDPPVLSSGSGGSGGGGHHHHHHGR

v3.1_PPR21 = target: T2, v3.1_PPR21 (Artificial Sequence); conditions: tags: luciferase fusion; label: 5'-biotin
T2 chain: T1 chain with D283K, D318K, D388K, D703K, D808K

v3.1_PPR20 = target: T3, v3.1_PPR20 (Artificial Sequence); conditions: tags: luciferase fusion; label: 5'-biotin
T3 chain: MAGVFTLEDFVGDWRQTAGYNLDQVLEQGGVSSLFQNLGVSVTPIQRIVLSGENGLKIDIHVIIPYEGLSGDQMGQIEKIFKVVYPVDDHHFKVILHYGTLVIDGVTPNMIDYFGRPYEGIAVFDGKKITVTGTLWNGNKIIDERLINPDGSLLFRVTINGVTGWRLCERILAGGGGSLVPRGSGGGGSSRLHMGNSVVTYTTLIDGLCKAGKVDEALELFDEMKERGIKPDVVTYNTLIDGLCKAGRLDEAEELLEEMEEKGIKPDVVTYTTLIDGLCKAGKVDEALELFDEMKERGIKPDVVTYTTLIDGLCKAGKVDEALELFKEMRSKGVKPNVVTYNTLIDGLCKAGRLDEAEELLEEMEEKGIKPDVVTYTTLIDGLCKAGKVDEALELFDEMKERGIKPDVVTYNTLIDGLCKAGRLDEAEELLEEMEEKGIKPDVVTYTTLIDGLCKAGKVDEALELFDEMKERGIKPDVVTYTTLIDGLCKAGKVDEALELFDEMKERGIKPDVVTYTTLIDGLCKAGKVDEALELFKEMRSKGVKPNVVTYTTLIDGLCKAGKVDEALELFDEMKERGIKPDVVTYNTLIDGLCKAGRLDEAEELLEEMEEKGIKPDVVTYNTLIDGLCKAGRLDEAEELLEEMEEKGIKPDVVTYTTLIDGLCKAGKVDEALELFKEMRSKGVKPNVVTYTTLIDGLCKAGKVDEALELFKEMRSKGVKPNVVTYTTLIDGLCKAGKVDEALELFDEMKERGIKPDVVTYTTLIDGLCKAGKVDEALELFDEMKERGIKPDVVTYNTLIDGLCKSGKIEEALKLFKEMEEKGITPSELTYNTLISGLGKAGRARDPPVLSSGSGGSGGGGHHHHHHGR

NL_v2_PPR20 = target: T4, NL_v2_PPR20 (Artificial Sequence); conditions: tags: N-term luciferase, C-term 6xHis; label: 5'-biotin
T4 chain: T3 chain with K318D, K528D, K668D, K703D

v3.1_PPR19 = target: T5, v3.1_PPR19 (Artificial Sequence); conditions: tags: luciferase fusion; label: 5'-biotin
T5 chain: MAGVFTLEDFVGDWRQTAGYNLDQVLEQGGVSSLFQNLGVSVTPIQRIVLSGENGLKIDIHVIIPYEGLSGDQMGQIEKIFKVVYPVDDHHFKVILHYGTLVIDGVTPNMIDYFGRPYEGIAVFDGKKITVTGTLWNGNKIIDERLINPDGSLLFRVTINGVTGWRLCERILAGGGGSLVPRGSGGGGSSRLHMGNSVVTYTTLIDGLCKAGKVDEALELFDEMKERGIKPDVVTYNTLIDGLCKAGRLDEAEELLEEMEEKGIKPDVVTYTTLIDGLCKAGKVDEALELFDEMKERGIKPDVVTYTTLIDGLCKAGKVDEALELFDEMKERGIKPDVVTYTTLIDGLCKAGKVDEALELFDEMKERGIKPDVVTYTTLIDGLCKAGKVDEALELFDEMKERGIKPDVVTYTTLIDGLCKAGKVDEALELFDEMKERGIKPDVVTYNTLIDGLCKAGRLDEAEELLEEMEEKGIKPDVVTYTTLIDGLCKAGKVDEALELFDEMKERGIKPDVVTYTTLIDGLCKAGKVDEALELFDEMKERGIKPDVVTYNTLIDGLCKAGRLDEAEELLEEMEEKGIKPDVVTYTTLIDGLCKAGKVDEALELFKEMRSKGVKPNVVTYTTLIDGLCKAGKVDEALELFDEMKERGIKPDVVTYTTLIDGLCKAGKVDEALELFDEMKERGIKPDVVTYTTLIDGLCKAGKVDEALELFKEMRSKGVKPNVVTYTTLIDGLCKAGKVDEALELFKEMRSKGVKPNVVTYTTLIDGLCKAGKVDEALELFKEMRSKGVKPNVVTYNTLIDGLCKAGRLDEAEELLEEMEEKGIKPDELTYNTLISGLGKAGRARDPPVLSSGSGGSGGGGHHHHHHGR

NL_v2_PPR19 = target: T6, NL_v2_PPR19 (Artificial Sequence); conditions: tags: N-term luciferase, C-term 6xHis; label: 5'-biotin
T6 chain: T5 chain with K598D, K703D, K738D, K773D

GACAUGCGGAAGAGUGUCUGGAGCAGACUG (ssRNA) [RNA_21]
binding signal (NL_v2_PPR21): 5e+07 luminescence
binding signal (v3.1_PPR21): 4.9e+06 luminescence

GACAUGCGUGAUGUGGAGUUAAGGCGACUG (ssRNA) [RNA_20]
binding signal (v3.1_PPR20): 3.6e+06 luminescence
binding signal (NL_v2_PPR20): 1.2e+07 luminescence

GACAUGCGUGGGGGUGGUAGGAAAUGACUG (ssRNA) [RNA_19]
binding signal (v3.1_PPR19): 1.3e+07 luminescence
binding signal (NL_v2_PPR19): 1.3e+07 luminescence
